Here are results for one molecule from patent US20240034792A1 (HARBOUR BIOMED SHANGHAI, published 2024).

Experiment [1] addresses T1, Human PD-1 expressed on CHO-K1 cells (CHO-K1/hPD-1) (human, UniProt Q15116 25-288).
T1 construct: whole, on cells; also called CHO-K1 cells overexpressing human PD-1
Put plainly: FACS, CHO-K1-hPD-1 cells. As for the experimental part: In order to investigate the binding activity of the CD73×PD-1 bispecific antibody to human CD73 and PD-1, the binding assay at the cellular level was performed using a CHO-K1 cell strain overexpressing human CD73 or PD-1 (CHO-K1-hCD73 or CHO-K1-hPD-1). Briefly, the CHO-K1-hCD73 and CHO-K1-hPD-1 cells were digested and resuspended in an F-12K complete medium, and the cell density was adjusted to 1×10⁶ cells/mL. The cells were seeded in a 96-well V-bottom plate (Corning, #3894) at 100 μL/well, followed by the addition at 100 μL/well and centrifugation at 500 g at 4° C. for 5 min, and then the supernatant was discarded. Antibodies were 3-fold diluted to a maximum final concentration of 50 nM, and a total of 8 concentrations were set. 100 μL of the diluted antibodies was added to each well, and the cells were incubated at 4° C. for 1 h away from light. Thereafter, the cells in each well were rinsed twice with 100 μL of pre-cooled PBS, and centrifuged at 500 g at 4° C. for 5 min, and then the supernatant was discarded. Then 100 μL of a fluorescent secondary antibody (goat anti-human IgG (H+L) secondary antibody, Alexa Fluor® 488 conjugate, Invitrogen, Cat #A11013, 1:1000) was added to each well. […] Finally, the cells in each well were resuspended in 200 μL of pre-cooled PBS, and the fluorescence signal values were read using a BD FACS CANTOII.

Experiment [2] concerns the target T1, Human PD-1 expressed on CHO-K1 cells …. Put plainly: FACS blocking of biotin-labeled human PD-L1 binding to CHO-K1-hPD-1 cells.
For experiment [3] the target is unchanged. The experiment in a line: FACS, CHO-K1/hPD-1 cells. The method in brief: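 CHO-K1 cells overexpressing human or cynomolgus PD-1 were incubated 1 h at 4 °C with antigen-binding proteins: 8-11 concentrations, 5-fold dilutions, top final 100 nM or 300 nM, hIgG control. Binding was detected with Alexa Fluor 488 anti-human IgG (30 min, 4 °C) and read by flow cytometry.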
In general terms: Flow cytometry measures light scatter and fluorescence of single cells or particles in a stream.

T1 sequence (Q15116 25-288): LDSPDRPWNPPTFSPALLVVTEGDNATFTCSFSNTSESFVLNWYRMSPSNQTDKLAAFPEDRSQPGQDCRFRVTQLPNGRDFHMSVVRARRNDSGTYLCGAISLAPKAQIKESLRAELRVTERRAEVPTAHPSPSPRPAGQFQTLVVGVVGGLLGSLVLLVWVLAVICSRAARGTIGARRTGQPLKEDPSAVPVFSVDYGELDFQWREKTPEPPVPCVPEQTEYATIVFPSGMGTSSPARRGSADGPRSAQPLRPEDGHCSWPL

B1: PR002481 (antibody, human IgG1, V domains shown)
VH: EVQLVETGGGLIQPGGSLRLSCAASGFNVSSHYMSWVRQAPGKGREWVSIIDGGGSTYYADSVKGRFTISRDNSKNRLYLQMNSLRAEDTAMYYCARATAVAEKNGYNYPFNYWGQGTLVTVSS
notes: Heavy-chain-only antibody (HCAb), human IgG1 Fc; two heavy chains, no light chain; also called R4004P556D1; anti-PD1 R4004P556D1 HCAb hG1
In experiment [1], B1 gave a concentration giving a half-maximal response (EC50) of 1.24 nM. For the same molecule, in experiment [2], the IC50 was found to be 8.86 nM and the “Maximum inhibition rate (%)” value was found to be 103%. Besides, in experiment [3], the midpoint of the response, the EC50, lay at 8.94 nM and the “MFI Maximum” value worked out at 950000.

One may read the EC50 as the concentration that produces a half-maximal response. A low value points to a more potent agent. One may read the IC50 as the point on the concentration scale where inhibition reaches its midpoint.
